Experimental data from paper PMC11865472.

Columns and labels:
[1] = biological target: T1, rat betaglycan ZP-C domain (BG_(ZP-C)), mammalian-expressed; assay: SPR; settings: chain shown with the change; analyte: BGZP-C; parent: est. 95; read off a plot
T1 chain: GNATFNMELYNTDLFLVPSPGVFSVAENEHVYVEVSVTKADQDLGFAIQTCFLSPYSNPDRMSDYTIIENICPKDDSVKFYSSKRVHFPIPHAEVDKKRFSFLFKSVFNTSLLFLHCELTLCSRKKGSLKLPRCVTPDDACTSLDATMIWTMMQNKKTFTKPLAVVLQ

[2] = biological target: T2, TGF-β2 (growth factor domain, wild type) (human); assay: SPR; TGF-β2 immobilised on the chip surface; ratBGO, zfBGO, ratBGO-zfBL or ratBGO-Y248A injected, 2-fold dilution series 500 - 31.3 nM; three consecutive repeats
T2 sequence (P61812 303-414, looked up): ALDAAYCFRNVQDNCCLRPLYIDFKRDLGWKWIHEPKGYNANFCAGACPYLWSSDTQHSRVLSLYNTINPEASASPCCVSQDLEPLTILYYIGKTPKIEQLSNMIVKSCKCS

[3] = biological target: T3, inhibin A (InhA), mature heterodimer, unlabelled, P05111;P08476; assay: SPR; settings: chain shown with the change
T3 chain 1: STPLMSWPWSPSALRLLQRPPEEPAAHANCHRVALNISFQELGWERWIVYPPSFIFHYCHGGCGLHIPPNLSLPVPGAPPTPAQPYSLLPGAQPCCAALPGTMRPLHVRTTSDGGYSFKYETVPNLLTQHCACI
T3 chain 2: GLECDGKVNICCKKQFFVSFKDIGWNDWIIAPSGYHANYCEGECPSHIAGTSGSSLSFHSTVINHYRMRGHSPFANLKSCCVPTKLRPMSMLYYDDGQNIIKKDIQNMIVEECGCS

[4] = biological target: TGF-β2 (Y50A, L51A) (human); assay: SPR; BIAcore T200; TGF-β2 WT or TGF-β2 mutants amine-coupled (EDC-NHS) to a CM4 chip, max 400 RU; zfBGO WT or BGZP-C WT injected, 2-fold dilution series 250 - 15.6 nM; 10 mM CHES, 150 mM NaCl, 3 mM EDTA, 0.01% P20, pH 8.0; 100 µl/min; 1:1 kinetic model with drift; three consecutive repeats
[5] = biological target: T2, TGF-β2 (growth factor domain, wild type) (human); assay: as above
[6] = biological target: TGF-β2 (Q57A, K60A, L64A) (human); assay: as above
[7] = surface: InhA, parent: est. 1100 nM, read off a plot

B1: TGF-β2 homodimer (growth factor domain), unlabelled Y50A; L51A (protein)
chain: ALDAAYCFRNVQDNCCLRPLYIDFKRDLGWKWIHEPKGYNANFCAGACPAAWSSDTQHSRVLSLYNTINPEASASPCCVSQDLEPLTILYYIGKTPKIEQLSNMIVKSCKCS
Kd [1]: 110 nM

B2: rat betaglycan orphan domain (ratBGO), wild type (domain or fragment)
chain: CELSPINASHPVQALMESFTVLSGCASRGTTGLPREVHVLNLRSTDQGPGQRQREVTLHLNPIASVHTHHKPIVFLLNSPQPLVWHLKTERLAAGVPRLFLVSEGSVVQFPSGNFSLTAETEERNFPQENEHLLRWAQKEYGAVTSFTELKIARNIYIKVGEDQVFPPTCNIGKNFLSLNYLAEYLQPKAAEGCVLPSQPHEKEVHIIELITPSSNPYSAFQVDIIVDIRPAQEDPEVVKNLVLILKCKKSVNWVIKSFDVKGNLKVIAPNSIGFGKESERSMTMTKLVRDDIPSTQENLMKWALDNGYRPVTSYTMAPVANRFHLRLEN
Kd [2]: 72 nM

B3: ratBGO-Y248A (domain or fragment)
chain: CELSPINASHPVQALMESFTVLSGCASRGTTGLPREVHVLNLRSTDQGPGQRQREVTLHLNPIASVHTHHKPIVFLLNSPQPLVWHLKTERLAAGVPRLFLVSEGSVVQFPSGNFSLTAETEERNFPQENEHLLRWAQKEYGAVTSFTELKIARNIYIKVGEDQVFPPTCNIGKNFLSLNYLAEYLQPKAAEGCVLPSQPHEKEVHIIELITPSSNPASAFQVDIIVDIRPAQEDPEVVKNLVLILKCKKSVNWVIKSFDVKGNLKVIAPNSIGFGKESERSMTMTKLVRDDIPSTQENLMKWALDNGYRPVTSYTMAPVANRFHLRLEN
Kd [2]: 102 nM

B4: rat betaglycan ZP-C domain (BG_(ZP-C)), mammalian-expressed N82Y (protein)
chain: GNATFNMELYNTDLFLVPSPGVFSVAENEHVYVEVSVTKADQDLGFAIQTCFLSPYSNPDRMSDYTIIEYICPKDDSVKFYSSKRVHFPIPHAEVDKKRFSFLFKSVFNTSLLFLHCELTLCSRKKGSLKLPRCVTPDDACTSLDATMIWTMMQNKKTFTKPLAVVLQ
Kd [3, 7]: 850 nM

B5: rat betaglycan ZP-C domain (BGZP-C), wild type (domain or fragment)
chain: GNATFNMELYNTDLFLVPSPGVFSVAENEHVYVEVSVTKADQDLGFAIQTCFLSPYSNPDRMSDYTIIENICPKDDSVKFYSSKRVHFPIPHAEVDKKRFSFLFKSVFNTSLLFLHCELTLCSRKKGSLKLPRCVTPDDACTSLDATMIWTMMQNKKTFTKPLAVVLQ
Kd [4]: 113 nM
Kd [5]: 95 nM
Kd [6]: 99 nM

B6: rat betaglycan ZP-C domain (BG_(ZP-C)), mammalian-expressed A158E (protein)
chain: GNATFNMELYNTDLFLVPSPGVFSVAENEHVYVEVSVTKADQDLGFAIQTCFLSPYSNPDRMSDYTIIENICPKDDSVKFYSSKRVHFPIPHAEVDKKRFSFLFKSVFNTSLLFLHCELTLCSRKKGSLKLPRCVTPDDACTSLDETMIWTMMQNKKTFTKPLAVVLQ
Kd ([3]; 500 - 15.6 nM, 2-fold dilution series): 1810 nM
Kd [3, 7]: 1800 nM
